Assay results: patent US12162918B2, “Periostin compounds for the treatment of haematological complications” (Chemotherapeutisches Forschungsinstitut Georg-Speyer-Haus, priority 2018, dated 2024)
Entries after “also recorded” stand apart in the source; their conditions may differ.

Assays:
integrin β3 = target: T1, integrin β3 (Mus musculus, UniProt O54890+P43406); experiment: Inhibition of integrin β3 by cilengitide, pAKT in Lin− cells cocultured on BM stroma; assay type: cell-based, mice; settings: cilengitide 0.05 μM, coculture on BM stroma cells, P=0.03
T1 construct: endogenous in cells; host or cells: murine Lin− bone marrow cells cocultured on murine BM stroma cells
Experimental: (§1) Concentrations of drugs for in vitro use were 2 μM for warfarin, 2 μg/ml for periostin, 5 μM for the AKT inhibitor MK-2206 (Selleck Chemicals, Houston, TX) and cilengitide (Selleck Chemicals, Houston, TX, Cat. No. #S7077) was used at 0.05 μM. Phosphate buffered saline served as the vehicle control.
The PE-labelled anti-pAKT antibody (Cell signaling, #5315, Danvers, MA) was used for intracellular flow cytometry after fixation and permeabilization of the cells.

wildtype mice = experiment: Complete blood count and flow cytometry of peripheral blood and bone marrow of treated mice; assay type: in vivo; settings: administration of vitamin K1, P=0.04
Experimental: (§2) 0.5 mg/kg/d or 0.05 mg/kg/d of warfarin, resuspended in phosphate-buffered saline was administered to mice via subcutaneously implanted osmotic minipumps (ALZET minipumps, Cupertino, CA). The osmotic minipumps were changed after 14 days (if the experiment went beyond 14 days of treatment). Sham operated (skin incision and suture) mice served as controls. Warfarin treatment continued for 10-14 days. In the xenotransplantation experiments the mice were treated with warfarin via the drinking water (or normal drinking water) at a dose of 0.72 mg/100 ml for a total of 3 days a week (Pfeilschifter et al., 2011).
(§3) 5-fluorouracil was intraperitoneally injected every week at a dose of 75 mg/kg for a total of 4 doses or as a one time dose of 200 mg/kg. Recombinant mouse periostin (R&D Systems, Minneapolis, MN, cat. no. 2955-F2), produced in the Sf21 (baculovirus)-derived insect cell line, was administered intravenously at a dose of 2-4 μg per day and vitamin K was given at a dose of 15 mg/kg by oral gavage for four consecutive days.
We assessed the complete blood count of vehicle or warfarin-treated mice using a complete blood count analyzer (Scil Vet ABC, Gurnee, IL). Peripheral blood and bone marrow samples were stained with antibodies for flow cytometry, which was performed on a BD LSR Fortessa (BD Biosciences, Heidelberg, Germany). The lineage antibody cocktail contained antibodies to B220, CD5, Ter119, F4/80 and CD11b. Engraftment of human cells in NSG mice was assessed using anti-human CD45 (BD Biosciences, San José, CA).

HSC = experiment: Competitive transplantation of bone marrow from periostin- or vitamin K-treated donor mice; assay type: in vivo; settings: for percentage of LKS cells, cell cycle of transplanted LKS cells, number of colonies in methylcellulose: previously treated bone marrow cells compared to vehicle
Experimental: as §3
SJL (CD45.1) donor mice were treated with vehicle or warfarin, euthanized and long bones were flushed, followed by RBC lysis (Life Technologies, Darmstadt, Germany). For competitive transplantation 2×10^6 total BM cells from SJL mice were co-transplanted with 1×10^6 CD45.2+ BM competitor cells into lethally irradiated (900 cGy) C57BL/6N (CD45.2+) recipient mice. For serial transplantation 2×10^6 total CD45.1+ BM cells were transplanted into lethally irradiated C57BL/6N recipient mice. Cell engraftment and chimerism were assessed by flow cytometry of peripheral blood leukocytes for CD45.1 and CD45.2 after 4, 8, 12 and 16 weeks post transplantation. In the limiting dilution experiment we treated primary CD45.1+ donor mice with vehicle or warfarin for 14 days and, consequently, transplanted 5×10^5, 12.5×10^4, 6×10^4 and 1.5×10^4 pooled BM cells into 5 CD45.2+ recipients per group adding 5×10^5 CD45.2+ supporter cells. In indicated experiments we transplanted 5,000 or 10,000 sorted CD45.1+ LKS cells from mice treated with vehicle or warfarin plus 1×10^6 CD45.2+ total BM supporter cells into CD45.2+ recipient mice.

patients = experiment: Peripheral blood counts of patients on VKA versus control patients; assay type: in vivo, human
From the text: For FIGS. 6C-6H: Data of patients on VKA were obtained from the French health care databases. Patients with hematological disease, inflammation or sepsis were excluded. Patients admitted to the hospital for dermatological problems without hematological disease or sepsis acted as controls.

Lin− cells [1] = experiment: Plating of warfarin-exposed Lin− cells on untreated versus warfarin-treated stroma, with or without MK-2206; assay type: cell-based, mice; settings: MK-2206 5 μM added to cocultures, P=0.02
[2] = tested on: LKS cells and myeloid cells; experiment: In vivo administration of periostin to mice treated with warfarin
Experimental: as §2, §3
For cell cycle analysis cells were permeabilized and fixed with the cytoperm/cytofix kit (BD Biosciences, San Jose, CA), followed by staining with an antibody to Ki67-PE (Biolegend, San Diego, CA) overnight at 4 C. Consequently, cells were washed and resuspended in PBS with DAPI (1 ng/ml). For detection of apoptosis cells were first stained for surface markers, washed with Annexin V buffer (Life Technologies, Darmstadt, Germany), stained with Annexin V-PE (Life Technologies, Darmstadt, Germany), washed with Annexin V binding buffer, resuspended in PBS with DAPI and analyzed.

Lin− cells [3] = experiment: Adhesion assay of Lin− cells to stroma cells; assay type: cell-based, mice; settings: periostin added, warfarin- and more prominently vehicle-treated conditions, P=0.03
From the text: In vivo administration of periostin to mice treated with warfarin also ‘rescued’ the number of LKS cells positive for integrin β3, whose binding to its ligand periostin (Gillan et al., 2002) is known to mediate HSC support (P=0.0013; FIG. 5A) (Khurana and Verfaillie, 2013). […] In order to test, whether the periostin/integrin β3-axis mediates the adhesion of HSPC to stroma, the inventors performed an adhesion assay plating untreated Lin− cells on vehicle- or warfarin-treated stroma cells in the presence or absence of periostin. […] Due to the role of pAKT, which lies downstream of integrin β3 (Hynes, 2002), in periostin-mediated cell survival (Bao et al., 2004) the inventors tested the effect of inhibition of integrin β3 by cilengitide on pAKT in Lin− cells after coculture on BM stroma cells. Similar to the reduction of pAKT+ Lin− cells in mice treated with warfarin (FIG. 3A), inhibition of integrin β3 led to a decrease of pAKT in Lin− cells (P=0.03).
as §1

[4] = tested on: hematopoietic cells from murine bone marrow; experiment: In vitro rescue experiment with periostin in stroma/Lin− cocultures; assay type: cell-based; settings: for absolute number of hematopoietic cells in coculture: 2 μg/ml periostin added, warfarin-treated stroma, 5 days, P=0.02
Experimental: as §1
To test the direct effect of warfarin on hematopoietic cells 100,000 Lin− cells were cultured in 2 μM vehicle or warfarin in the absence of stroma cells for a total of 7 days. For the in vitro rescue experiment with periostin stroma cells were grown in warfarin for 14 days, before vehicle or periostin were added.

T1 sequence (O54890 26-787): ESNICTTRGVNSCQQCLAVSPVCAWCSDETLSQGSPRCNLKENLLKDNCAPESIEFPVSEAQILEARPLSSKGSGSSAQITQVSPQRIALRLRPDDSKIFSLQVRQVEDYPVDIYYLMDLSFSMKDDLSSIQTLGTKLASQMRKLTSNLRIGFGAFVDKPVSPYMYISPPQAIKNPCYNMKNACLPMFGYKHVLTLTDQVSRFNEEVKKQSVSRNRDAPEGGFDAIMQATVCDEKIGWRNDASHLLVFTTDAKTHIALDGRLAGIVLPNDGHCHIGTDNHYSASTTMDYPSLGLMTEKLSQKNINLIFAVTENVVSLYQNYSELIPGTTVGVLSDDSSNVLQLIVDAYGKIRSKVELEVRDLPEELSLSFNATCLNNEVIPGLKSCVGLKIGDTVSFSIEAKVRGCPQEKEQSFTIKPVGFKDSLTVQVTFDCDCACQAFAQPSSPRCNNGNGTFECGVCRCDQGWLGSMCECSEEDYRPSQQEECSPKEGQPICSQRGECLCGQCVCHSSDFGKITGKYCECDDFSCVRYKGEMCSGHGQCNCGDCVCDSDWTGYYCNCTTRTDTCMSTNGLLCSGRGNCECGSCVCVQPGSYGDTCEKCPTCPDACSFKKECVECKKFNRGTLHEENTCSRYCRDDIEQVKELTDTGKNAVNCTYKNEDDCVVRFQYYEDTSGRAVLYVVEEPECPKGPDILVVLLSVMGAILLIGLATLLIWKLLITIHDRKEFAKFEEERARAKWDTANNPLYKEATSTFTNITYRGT
T1 sequence (P43406 31-885 limits assumed): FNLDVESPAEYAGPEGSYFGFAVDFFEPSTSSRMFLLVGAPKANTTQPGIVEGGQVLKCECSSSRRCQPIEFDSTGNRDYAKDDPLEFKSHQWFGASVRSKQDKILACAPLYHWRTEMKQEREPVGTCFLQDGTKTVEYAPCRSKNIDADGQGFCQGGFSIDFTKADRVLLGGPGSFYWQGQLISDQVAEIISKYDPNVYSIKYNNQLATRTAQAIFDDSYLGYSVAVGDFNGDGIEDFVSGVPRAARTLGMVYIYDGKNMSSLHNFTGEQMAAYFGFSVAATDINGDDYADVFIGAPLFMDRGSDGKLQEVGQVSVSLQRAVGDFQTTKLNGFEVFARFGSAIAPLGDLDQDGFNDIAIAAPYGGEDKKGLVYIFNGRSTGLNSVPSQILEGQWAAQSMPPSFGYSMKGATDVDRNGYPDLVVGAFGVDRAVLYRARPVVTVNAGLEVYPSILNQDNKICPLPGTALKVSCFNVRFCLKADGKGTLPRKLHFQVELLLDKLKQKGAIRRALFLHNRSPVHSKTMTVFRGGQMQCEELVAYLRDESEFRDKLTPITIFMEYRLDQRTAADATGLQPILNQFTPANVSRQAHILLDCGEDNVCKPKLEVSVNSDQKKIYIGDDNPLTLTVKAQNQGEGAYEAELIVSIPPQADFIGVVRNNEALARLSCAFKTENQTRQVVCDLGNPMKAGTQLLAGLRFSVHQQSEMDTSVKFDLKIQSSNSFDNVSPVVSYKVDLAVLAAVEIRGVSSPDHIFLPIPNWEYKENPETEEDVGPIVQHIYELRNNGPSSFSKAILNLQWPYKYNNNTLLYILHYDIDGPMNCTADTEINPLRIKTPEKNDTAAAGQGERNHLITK
T1 sequence (P43406 887-1044 partner limits assumed): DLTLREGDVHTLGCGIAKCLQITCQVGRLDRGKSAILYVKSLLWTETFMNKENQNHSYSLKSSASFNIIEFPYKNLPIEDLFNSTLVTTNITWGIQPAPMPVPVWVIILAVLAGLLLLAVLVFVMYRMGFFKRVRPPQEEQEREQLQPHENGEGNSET

Molecule: CC(C)[C@H]1C(=O)N[C@@H](CCCN=C(N)N)C(=O)NCC(=O)N[C@@H](CC(=O)O)C(=O)N[C@H](Cc2ccccc2)C(=O)N1C [cilengitide]
- pAKT in Lin− cells (integrin β3): decrease

Molecule: CC1=C(C/C=C(\C)CCC[C@H](C)CCC[C@H](C)CCCC(C)C)C(=O)c2ccccc2C1=O [vitamin K1]
- decreased percentage of myeloid cells in previously warfarin-treated mice (wildtype mice): rescued
- percentage of LKS cells, cell cycle of transplanted LKS cells, number of colonies in methylcellulose (HSC): did not lead to an increase
- engraftment of donor cells (HSC; treatment of donor mice with vitamin K prior to competitive transplantation): did not lead to increased engraftment

Molecule: O=C1c2ccccc2C(=O)C1c1ccc(F)cc1 [fluindione]
- absolute number of leukocytes (patients; 282 patients on warfarin (P=0.0007) or 89 on fluindione (P=0.029) vs 145 control patients): reduced
- absolute number of monocytes (patients; 282 patients on warfarin (P=0.004) or 89 on fluindione (P=0.046) vs 145 control patients): reduced
- platelets (patients; warfarin- or fluindione-treated patients): not reduced

Molecule: NC1(c2ccc(-c3nc4ccn5c(=O)[nH]nc5c4cc3-c3ccccc3)cc2)CCC1 [MK-2206]
- temporary recovery of warfarin-exposed Lin− cells on untreated stroma (Lin− cells [1]): prevented

B1: periostin: Recombinant mouse periostin (R&D Systems, cat. no. 2955-F2), produced in the Sf21 (baculovirus)-derived insect cell line (protein)
chain: NSYYDKVLAHSRIRGRDQGPNVCALQQILGTKKKYFSSCKNWYQGAICGKKTTVLYECCPGYMRMEGMKGCPAVMPIDHVYGTLGIVGATTTQHYSDVSKLREEIEGKGSYTYFAPSNEAWENLDSDIRRGLENNVNVELLNALHSHMVNKRMLTKDLKHGMVIPSMYNNLGLFINHYPNGVVTVNCARVIHGNQIATNGVVHVIDRVLTQIGTSIQDFLEAEDDLSSFRAAAITSDLLESLGRDGHFTLFAPTNEAFEKLPRGVLERIMGDKVASEALMKYHILNTLQCSEAITGGAVFETMEGNTIEIGCEGDSISINGIKMVNKKDIVTKNGVIHLIDEVLIPDSAKQVIELAGKQQTTFTDLVAQLGLASSLKPDGEYTLLAPVNNAFSDDTLSMDQRLLKLILQNHILKVKVGLSDLYNGQILETIGGKQLRVFVYRTAICIENSCMVRGSKQGRNGAIHIFREIIQPAEKSLHDKLRQDKRFSIFLSLLEAADLKDLLTQPGDWTLFAPTNDAFKGMTSEERELLIGDKNALQNIILYHLTPGVYIGKGFEPGVTNILKTTQGSKIYLKGVNETLLVNELKSKESDIMTTNGVIHVVDKLLYPADIPVGNDQLLELLNKLIKYIQIKFVRGSTFKEIPMTVYRPAMTKIQIEGDPDFRLIKEGETVTEVIHGEPVIKKYTKIIDGVPVEITEKQTREERIITGPEIKYTRISTGGGETGETLQKFLQKEVSKVTKFIEGGDGHLFEDEEIKRLLQGDTPAKKIPANKRVQGPRRRSREGRSQ
- annexin V+ apoptotic LKS cells ([2]; periostin and warfarin (or vehicle) vs warfarin (or vehicle) alone, P=0.02): significantly reduced
- median fluorescence intensity of integrin β3 on LKS cells ([2]; periostin to warfarin-treated mice): remained unchanged
- percentage of myeloid cells in peripheral blood ([2]; periostin to warfarin-treated mice, 4 day treatment, P=0.007): rescued; also recorded: increase of the percentage of myeloid cells
- number of LKS cells positive for integrin β3 ([2]; periostin to warfarin-treated mice, P=0.0013): rescued
- adhesion of Lin− cells to stroma (Lin− cells [3]): restored or augmented
- engraftment of CD45.1+ bone marrow (ratio CD45.1/CD45.2) (HSC; donor treated for four days, four weeks after transplantation, P=0.02): increased engraftment
- engraftment of CD45.1+ bone marrow (HSC; later time points (data not shown)): not at later time points
- percentage of LKS cells, cell cycle of transplanted LKS cells, number of colonies in methylcellulose (HSC): did not lead to an increase
- absolute number of hematopoietic cells in coculture [4]: increase of the number of hematopoietic cells
- absolute number of hematopoietic cells in coculture ([4]; listed as recombinant periostin): restored
- percentage of LKS cells in warfarin-treated cultures ([4]; periostin added, P=0.056): strong trend towards restoration
